Changes are numbered by the printed parent chain. Blank lines part the entries; values can stand above or below the binder they belong to.
Key:
[1] = biological target: T1, human NKG2D expressed on cells (human, UniProt P26718 1-216); assay: flow cytometry; expanded human NK cells; NK cells, Table 11 immune-cell binding
T1 construct: the cell type is named under assay; also called NKG2D on NK92 cells; HEK293T human NKG2D
T1 chain: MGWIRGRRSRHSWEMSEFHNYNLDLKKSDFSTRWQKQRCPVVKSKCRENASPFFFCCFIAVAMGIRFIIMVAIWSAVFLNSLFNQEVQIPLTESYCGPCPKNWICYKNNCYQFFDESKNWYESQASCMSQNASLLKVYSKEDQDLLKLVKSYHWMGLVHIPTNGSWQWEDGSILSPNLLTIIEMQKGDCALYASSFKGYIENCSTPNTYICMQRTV
Description: (§1) Viability of expanded NK cells was checked and cells were adjusted to a density of 1 mio cells/ml in FACS buffer. 100 μl of these cell suspensions (containing 0.1 mio cells) were seeded into a 96 well round bottom plate. The plate was centrifuged for 4 min at 400×g and the supernatant was removed. Then 0.5 μl FC BLOCK™ (BD Bioscience) in 20 μl total volume per well were added and the plate was incubated for 30 min at 4° C. Supernatant was removed and then 40 μl of the diluted NKG2D antibodies were added to the cells and incubated for additional 30 min at 4° C. After the incubation the cells were washed twice with 150 μl FACS buffer per well. Then 20 μl of the diluted FITC anti-human Fc specific secondary antibody (Jackson ImmunoResearch, #109-096-098) was added to the cells. The cells were incubated for an additional 30 min at 4° C. To remove unbound antibody the cells were washed again twice with 150 μl per well FACS buffer. To fix the cells 100 μl of FACS buffer containing 1% PFA were added to the wells. Before measuring the cells were re-suspended in 150 μl FACS buffer. The fluorescence was measured using a BD CantoII flow cytometer.

[2] = biological target: T1, human NKG2D expressed on cells; assay: flow cytometry; CD8 T cells in PBMCs
Description: as §1, with “of freshly isolated PBMCs” for “of expanded NK cells”, “of the PBMCs” for “of these cell suspensions”, “#109-096-098) together with CD8 APC (Clone SK1, BioLegend) and CD3 PE/Cy7 (clone UCHT1, BioLegend)” for “#109-096-098)”, “the cells to detect the NKG2D antibodies and identify CD8 T cells as CD8 and CD3 positive cells within PBMCs.” for “the cells.”, “unbound antibody,” for “unbound antibody”

[3] = biological target: T1, human NKG2D expressed on cells; assay: flow cytometry on NKG2D-positive NK92 cells, anti-human Fc secondary antibody
Description: Viability of NK92 cells or tumor cells (MKN-45, LS180) was checked and cells were re-suspended and adjusted to a density of 1 mio cells/ml. 100 μl per well of this cell suspension (containing 0.1 mio cells) were seeded into a 96 well round bottom plate. The plate was centrifuged for 4 min at 400×g and the supernatant was removed. Then 40 μl of the diluted antibodies or FACS buffer were added to the cells and incubated for 30 min at 4° C. After the incubation the cells were washed twice with 150 μl FACS buffer per well. […] The cells were incubated for an additional 30 min at 4° C. To remove unbound antibody, the cells were washed again twice with 150 μl per well FACS buffer. To fix the cells, 100 μl of FACS buffer containing 1% PFA were added to the wells. Before measuring, the cells were re-suspended in 150 μl FACS buffer. The fluorescence was measured using a BD flow cytometer.

di cyNKG2D ECD Fc avi = biological target: T2, di cyNKG2D ECD Fc avi (cynomolgus, biotinylated at the avi-tag); assay: SPR Biacore; IgG captured by anti-Fab, antigen analyte; TraceDrawer fit
T2 construct: Dimeric fusion of cynomolgus NKG2D ECD to the C-terminus of an avi-tagged human IgG1 Fc; also called recombinant cynomolgus NKG2D
T2 sequence (chain, as listed by the source limits assumed): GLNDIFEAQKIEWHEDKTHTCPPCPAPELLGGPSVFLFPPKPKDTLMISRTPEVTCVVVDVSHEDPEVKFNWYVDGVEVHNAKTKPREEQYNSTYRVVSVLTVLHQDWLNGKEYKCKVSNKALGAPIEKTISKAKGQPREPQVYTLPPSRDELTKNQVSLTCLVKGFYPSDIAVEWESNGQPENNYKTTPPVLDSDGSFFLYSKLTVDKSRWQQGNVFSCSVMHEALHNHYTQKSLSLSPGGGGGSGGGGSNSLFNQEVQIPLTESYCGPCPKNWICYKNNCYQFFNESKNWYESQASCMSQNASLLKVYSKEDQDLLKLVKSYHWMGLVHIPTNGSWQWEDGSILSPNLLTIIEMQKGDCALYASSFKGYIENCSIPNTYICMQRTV
Description: (§2) Around 1500 resonance units (RU) of the capture antibody (10 μg/ml human Fab Capture Kit, GE Healthcare Life Sciences, #28958325) were coupled onto a CM5 chip (GE Healthcare, #BR-1005-30) using a BIACORE® B4000 instrument (GE Healthcare) at pH 5.0 by using an amine coupling kit supplied by GE Healthcare. The sample and system buffer was PBS-T (10 mM phosphate buffered saline including 0.05% TWEEN® (polysorbate) 20) pH 7.4. The flow cells were set to 25° C.—and the sample block set to 12° C.—and primed twice with running buffer. The antibody was captured by injecting a ˜10 μg/ml solution for 60 sec at a flow rate of 10 μl/min. Association was measured by injection of di huNKG2D ECD Fc avi (SEQ ID NO: 96) or di cyNKG2D ECD Fc avi (SEQ ID NO: 97) in various concentrations in solution for 180 s at a flow rate of 30 μl/min starting with 600 nM, 300 nM, 150 nM following […] dilutions. The dissociation phase was monitored for up to 450 s and triggered by switching from the sample solution to running buffer. The surface was regenerated by 2×90 s washing with a glycine pH 2.1 solution at a flow rate of 30 μl/min and an additional stabilization period of 180 s. Bulk refractive index differences were corrected by subtracting the response obtained from an anti-human Fab surface. Blank injections were also subtracted (=double referencing). For calculation of KD, kₐ and kd (see Table 8), the Langmuir 1:1 model in the BIACORE® 4000 Evaluation software 1.1 (GE Healthcare) or TraceDrawer 1.6.1 (Ridgeview Instruments AB) were used.

di huNKG2D ECD Fc avi = biological target: T3, di huNKG2D ECD Fc avi (human, biotinylated at the avi-tag); assay: as above
T3 construct: Dimeric fusion of human NKG2D ECD to the C-terminus of an avi-tagged human IgG1 Fc
Description: as §2

B1: anti-NKG2D antibody clone 013 (antibody, V domains shown)
VH: EQSGGGAGGGLVKPGGSLELCCKASGFDFSIYWMSWVRQSPGKGLEWIGRIYGGSSDYTAYASWVNGRFTLSRDIDQSTGCLQLNSLTAADTAMYYCVRLNPSFSRSFDYWGQGTLVTVSS
VL: DIQMTQSPSSVSASVGDRVTITCRASQGIFSWLVWYQQKPGKAPELLMYGASTLQSGVPSRFSGSGSGTDFTLTISSLQPEDFATYYCQQGYSTPYTFGQGTKVEIK
notes: From transgenic rabbits
EC50 [1]: 48.8 nM
EC50 [2]: 264 nM

B2: anti-NKG2D antibody clone 395 (antibody, V domains shown)
VH: QEQLEQSGGGLVTPGGSLKLCCTASGFDFNTFWMTWVRQAPGKGLEWIGCIHGGSGSRDYASWVNGRFTLSRDIDQSTACLQVNSLTAADTAMYYCARPGYRSWSKTFDLWGQGTMVTVSS
VL: DIQMTQSPSSLSASVGDRVTITCRASQDISGALNWYQQKPGKAPNLLIYAASSLQSGVPSRFSGSGSGTDYTLTISSLQPEDFATYYCQQANSFPLTFGGGTKVEIK
notes: From transgenic rabbits; rabbit VH, human VL
EC50 (read off the curve) [3]: ~2 nM

B6: anti-NKG2D antibody 5C5 (IgG) (antibody, V domains shown)
VH: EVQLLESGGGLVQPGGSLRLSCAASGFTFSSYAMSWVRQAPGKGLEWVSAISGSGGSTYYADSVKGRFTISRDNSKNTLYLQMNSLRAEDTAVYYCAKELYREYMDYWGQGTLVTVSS
VL: SSELTQDPAVSVALGQTVRITCQGDSLRSYYASWYQQKPGQAPVLVIYGKNNRPSGIPDRFSGSSSGNTASLTITGAQAEDEADYYCNSRDSFSIHQNVFGGGTKLTVL
notes: also called clone 5C5
Kd (di huNKG2D ECD Fc avi): 63 nM
koff (di huNKG2D ECD Fc avi): 0.014 s⁻¹
kon (di huNKG2D ECD Fc avi): 220000 M⁻¹ s⁻¹

Other lines, results leading:

EC50 [2]: 0.83 nM
B3: anti-NKG2D antibody clone 230 (antibody, V domains shown)
VH: QQLEQSGGGLVKPGGSLELCCIASGFDFSTYWMTWVRQAPGKGLEWIGCIHGGGSGTTSYASWVNGRFTLSRDIDQSTGCLQLTSLTAADTAMYYCARPGYRSWSKTFDLWGQGTMVTVSS
VL: B2 VL with R24Q, S26N, G31N, N45K, Y71F, T85A, N92A
notes: From transgenic rabbits

Kd (di cyNKG2D ECD Fc avi): 710 nM
koff (di cyNKG2D ECD Fc avi): 0.09 s⁻¹
kon (di cyNKG2D ECD Fc avi): 130000 M⁻¹ s⁻¹
EC50 [2]: 0.13 nM
B4: anti-NKG2D antibody clone 296 (antibody, V domains shown)
VH: EVQLLESGGGLVQPGGSLRLSCAASGFTFSSYAMSWVRQAPGKGLEWVSAIGIGGGGTYYADSVKGRFTISRDNSKNTLYLQMNSLRAEDTAVYHCAKGASFDFINFFPYWGQGTLVTVSS
VL: B2 VL with D28G, G31N, A32D, N34A, N45K, Y71F, A91T, N92Y, F94T
notes: From transgenic rabbits

EC50 [2]: 13.1 nM
B5: anti-NKG2D antibody clone 320 (antibody, V domains shown)
VH: EVQLLESGGGLVQPGGSLRLSCATSGFTFSDYAMSWVRQAPGKGLEWVSYNSFSVGSTDYADSVKGRFTISRDNSKNTLYLQMNSLRAEDTAVYYCSKHSGNYYTGPFHYWGQGTLVTVSS
VL: DIQLTQSPSFLSASVGDRVTITCRASQGISSYLAWYQQKPGKAPKLLIYAASSLESGVPSRFSGSGSGTDFTLTISSLQPEDFATYYCQQSYSTPITFGQGTRLEIK
notes: From transgenic rabbits; also called 320 IgG

— patent US20240067734A1 (Hoffmann-La Roche, published 2024)
